The values that follow come from patent publication US20240294646A1.

In test [1] the target is FcγRIIb, soluble extracellular domain (UniProt P31994). In words: SPR (Biacore 4000, Protocol 2): antibody captured on immobilised HER2, soluble receptor as analyte. Background: SPR reads the build-up and loss of mass on a sensor chip optically.
Test [2] has as its target FcγRIIaR, soluble extracellular domain (UniProt P12318). The description is as above.
The target in test [3] is Soluble FcγRIIaR extracellular domain with C-terminal 10×His tag (UniProt P12318). In words: SPR (Biacore 4000), antibody captured on immobilised HER2, soluble receptor as analyte.
For test [4], the target named is Soluble FcγRIIb extracellular domain with C-terminal 10×His tag (UniProt P31994). The description is as above.
Test [5] deals with C1q (human) (UniProt P02745). The experiment in a line: ELISA; antibody coated, human C1q added, signal as % of WT. A general note: ELISA stands for enzyme-linked immunosorbent assay.
Test [6] concerns the target FcγRIIb (UniProt P31994). In words: SPR (Protocol 2); ratio of the fold for FcγRIIb to the fold for FcγRIIaR.
Test [7] has as its target FcγRIIb (UniProt P31994). The experiment in a line: SPR (Protocol 2), antibody captured on immobilised HER2, receptor as analyte.
The target in test [8] is FcγRIIaR (UniProt P12318). The test is described as above.
Chain of FcγRIIaR (P12318 34-217): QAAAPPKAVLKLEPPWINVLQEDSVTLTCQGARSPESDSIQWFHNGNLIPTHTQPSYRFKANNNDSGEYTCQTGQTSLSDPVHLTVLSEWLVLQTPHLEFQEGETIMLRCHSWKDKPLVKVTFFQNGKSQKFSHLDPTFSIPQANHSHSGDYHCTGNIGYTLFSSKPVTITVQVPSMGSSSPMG

Chain of Soluble FcγRIIaR extracellular domain with C-terminal 10×His tag (P12318 other isoform, or with tags, fused parts or gaps): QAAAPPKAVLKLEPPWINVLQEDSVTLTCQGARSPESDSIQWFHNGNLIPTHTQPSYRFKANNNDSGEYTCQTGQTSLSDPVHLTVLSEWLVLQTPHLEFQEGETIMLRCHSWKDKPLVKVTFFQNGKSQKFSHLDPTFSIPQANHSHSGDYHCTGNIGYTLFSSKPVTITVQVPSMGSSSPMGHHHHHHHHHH
Chain of FcγRIIb (P31994 43-217): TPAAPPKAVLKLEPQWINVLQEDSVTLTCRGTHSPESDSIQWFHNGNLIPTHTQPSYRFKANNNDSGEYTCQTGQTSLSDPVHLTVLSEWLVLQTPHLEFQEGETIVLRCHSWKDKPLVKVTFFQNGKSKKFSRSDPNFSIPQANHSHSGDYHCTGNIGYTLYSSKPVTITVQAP
Chain of FcγRIIb, soluble extracellular domain (P31994 43-217): as above
Chain of Soluble FcγRIIb extracellular domain with C-terminal 10×His tag (P31994 other isoform, or with tags, fused parts or gaps): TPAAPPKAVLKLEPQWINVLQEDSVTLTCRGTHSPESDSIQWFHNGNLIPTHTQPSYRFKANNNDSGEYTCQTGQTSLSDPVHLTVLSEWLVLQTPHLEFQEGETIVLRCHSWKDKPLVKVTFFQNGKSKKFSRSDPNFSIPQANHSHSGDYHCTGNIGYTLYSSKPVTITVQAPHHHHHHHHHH
Chain of C1q (human) (P02745 23-245 limits assumed, chain 1 of 3): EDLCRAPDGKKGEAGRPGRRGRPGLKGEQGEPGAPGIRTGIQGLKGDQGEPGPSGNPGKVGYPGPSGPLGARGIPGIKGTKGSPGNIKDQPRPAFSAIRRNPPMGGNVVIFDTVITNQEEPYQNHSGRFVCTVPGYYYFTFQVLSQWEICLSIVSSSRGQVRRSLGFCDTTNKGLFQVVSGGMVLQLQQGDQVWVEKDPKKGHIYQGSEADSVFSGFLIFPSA
Chain of C1q (human) (P02746 28-253 limits assumed, chain 2 of 3, further chain): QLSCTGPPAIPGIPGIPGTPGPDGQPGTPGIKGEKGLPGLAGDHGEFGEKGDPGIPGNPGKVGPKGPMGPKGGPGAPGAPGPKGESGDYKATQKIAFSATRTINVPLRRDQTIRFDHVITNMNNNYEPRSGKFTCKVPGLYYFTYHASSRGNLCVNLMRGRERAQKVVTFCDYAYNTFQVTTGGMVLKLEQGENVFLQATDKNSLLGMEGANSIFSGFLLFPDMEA
Chain of C1q (human) (P02747 29-245 limits assumed, chain 3 of 3, further chain): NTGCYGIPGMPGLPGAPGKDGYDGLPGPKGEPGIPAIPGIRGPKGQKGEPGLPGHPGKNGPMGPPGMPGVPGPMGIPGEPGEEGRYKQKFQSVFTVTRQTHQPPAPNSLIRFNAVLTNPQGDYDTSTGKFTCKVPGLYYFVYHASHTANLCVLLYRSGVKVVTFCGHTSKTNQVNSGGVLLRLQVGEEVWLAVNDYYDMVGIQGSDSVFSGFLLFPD
Chain of FcγRIIaR, soluble extracellular domain (P12318 34-217): as the sequence (P12318 34-217) above

Consider “Variant 26738 (A_P271Q_strat2), one-armed trastuzumab antibody with heterodimeric IgG1 Fc”, for which the Kd came out at 26 nM in test [1] and 77 nM in test [2].
In the case of “Variant 26706 (A_E269D_strat2), one-armed trastuzumab antibody”, the Kd worked out at 61 nM in test [3] and 20 nM in test [4].
With “Variant 26727 (A_D270P_strat2), one-armed trastuzumab antibody with heterodimeric IgG1 Fc”, the results for the Kd in test [1] and in test [2] were 88 nM and 180 nM, respectively.
The substance “Variant 32277 (trastuzumab FSA; chain A S239G_strat2, chain B G237L_strat2) (antibody)” had a C1q Binding (% WT) in test [5] of 0 % WT.
Turning to “Variant 26736 (A_P271T_strat2), one-armed trastuzumab antibody with heterodimeric IgG1 Fc”, the Kd amounted to 47 nM in test [1] and 120 nM in test [2].
Substance “Variant 26724 (A_D270R_strat2), one-armed trastuzumab antibody with heterodimeric IgG1 Fc” gave a Kd in test [1] of 89 nM.
“Variant 26703 (A_E269S_strat2), one-armed trastuzumab antibody”: the Kd in test [3] was 60 nM; in test [4], 24 nM.
On to “Variant 26713 (A_D270V_strat2), one-armed trastuzumab antibody”, for which the Kd in test [3] was 89 nM; in test [4] it was 41 nM.
For the substance “Variant 32257 (trastuzumab FSA; chain A A237E_strat1, chain B G330*K_strat1) (antibody)”, the C1q Binding (% WT) in test [5] amounted to 145 % WT.
Same read-out and setting: the same measure for “Variant 32268 (trastuzumab FSA; chain A S239T_strat1, chain B G330*K_strat1) (antibody)”: 210 % WT; for “Variant 32273 (trastuzumab FSA; chain A L235R_strat2, chain B G237L_strat2) (antibody)”: 2 % WT.
For “Variant 26710 (A_E269P_strat2), one-armed trastuzumab antibody”, the Kd turned out to be 78 nM in test [3] and 27 nM in test [4].
For “Variant 26708 (A_E269K_strat2), one-armed trastuzumab antibody”, the results for the Kd in test [3] and in test [4] were 70 nM and 22 nM, respectively.
Take “Variant 32261 (trastuzumab FSA; chain A L234Q_strat1, chain B G330*K_strat1) (antibody)”: in test [5], the C1q Binding (% WT) stood at 209 % WT.
Turning to “Variant 26712 (A_D270A_strat2), one-armed trastuzumab antibody”, the Kd is 80 nM in test [3] and 29 nM in test [4].
In the same order, the values of “Variant 26716 (A_D270F_strat2), one-armed trastuzumab antibody” are 48 nM and 17 nM.
Turning to “Variant 26733 (A_P271F_strat2), one-armed trastuzumab antibody with heterodimeric IgG1 Fc”, the Kd turned out to be 31 nM in test [1] and 87 nM in test [2].
In the same order, the values of “Variant 26726 (A_D270H_strat2), one-armed trastuzumab antibody with heterodimeric IgG1 Fc” are 23 nM and 74 nM.
On to “Variant 32260 (trastuzumab FSA; chain A L234D_strat1, chain B G330*K_strat1) (antibody)”, for which the C1q Binding (% WT) in test [5] was found to be 189 % WT.
Regarding “Variant 26734 (A_P271W_strat2), one-armed trastuzumab antibody with heterodimeric IgG1 Fc”, the Kd in test [1] was 28 nM; in test [2], 72 nM.
Regarding “Variant 26720 (A_D270S_strat2), one-armed trastuzumab antibody”, the results for the Kd in test [3] and in test [4] were 79 nM and 29 nM, respectively.
In the same order, the values of “Variant 26718 (A_D270Y_strat2), one-armed trastuzumab antibody” are 69 nM and 26 nM.
In the same order, the values of “Variant 26702 (A_E269T_strat2), one-armed trastuzumab antibody” are 64 nM and 26 nM.
The matching figures for “Variant 26714 (A_D270L_strat2), one-armed trastuzumab antibody”: 79 nM and 33 nM.
On to “Variant 26715 (A_D270I_strat2), one-armed trastuzumab antibody”, for which the Kd is 81 nM in test [3] and 25 nM in test [4].
In the same order, the values of “Variant 26711 (A_D270G_strat2), one-armed trastuzumab antibody” are 180 nM and 53 nM.
“Variant 26732 (A_P271I_strat2), one-armed trastuzumab antibody with heterodimeric IgG1 Fc” showed a Kd in test [2] of 70 nM.
Regarding “Variant 32256 (trastuzumab FSA; chain A A237D_strat1, chain B G330*K_strat1) (antibody)”, in test [5], the C1q Binding (% WT) turned out to be 124 % WT.
Still for that read-out and setting: the same measure for “Variant 32255 (trastuzumab FSA; chain A S239T_strat1, chain B D329*I_F328*Y_strat1) (antibody)”: 194 % WT; for “Variant 32263 (trastuzumab FSA; chain A L235A_strat1, chain B G330*K_strat1) (antibody)”: 170 % WT.
“Variant 26704 (A_E269Q_strat2), one-armed trastuzumab antibody”: the Kd in test [3] was determined as 66 nM; in test [4], 22 nM.
Take “Variant 26740 (A_P271D_strat2), one-armed trastuzumab antibody with heterodimeric IgG1 Fc”: the equilibrium dissociation constant (Kd) in test [1] was found to be 29 nM.
“Variant 26719 (A_D270T_strat2), one-armed trastuzumab antibody”: the Kd is 63 nM in test [3] and 23 nM in test [4].
As for “Variant 26709 (A_E269H_strat2), one-armed trastuzumab antibody”, the Kd was found to be 69 nM in test [3] and 22 nM in test [4].
For “Variant 19513 (chain A: G236H / chain B: S239D_H268D), one-armed trastuzumab antibody, Scaffold 2”, the IIb/IIaR Selectivity (IIb-Fold/IIaR-Fold) in test [6] is 0.6. This substance also showed an IIb-Fold (fold change in affinity over wild-type) (fold over wild-type) in test [7] of 8.2. Moreover, in test [8], the IIaR-Fold (fold change in affinity over wild-type) (fold over wild-type) came to 13.4.
“Variant 26707 (A_E269R_strat2), one-armed trastuzumab antibody”: the Kd in test [3] came to 77 nM; in test [4], 23 nM.
On to “Variant 19519 (chain A: G236E / chain B: S239D_H268D), one-armed trastuzumab antibody, Scaffold 2”, for which the IIb/IIaR Selectivity (IIb-Fold/IIaR-Fold) in test [6] amounted to 0.3. Moreover, the IIb-Fold (fold change in affinity over wild-type) (fold over wild-type) in test [7] turned out to be 10.3. Besides, the IIaR-Fold (fold change in affinity over wild-type) (fold over wild-type) in test [8] is 30.9.
For “Variant 19510 (chain A: G236N_G237A / chain B: S239D_H268D), one-armed trastuzumab antibody, Scaffold 2”, the IIb/IIaR Selectivity (IIb-Fold/IIaR-Fold) in test [6] is 3.1. This substance displayed an IIb-Fold (fold change in affinity over wild-type) (fold over wild-type) in test [7] of 5.5. In addition, in test [8], the IIaR-Fold (fold change in affinity over wild-type) (fold over wild-type) is 1.8.
Turning to “Variant 19515 (chain A: G236Q / chain B: S239D_H268D), one-armed trastuzumab antibody, Scaffold 2”, in test [6], the IIb/IIaR Selectivity (IIb-Fold/IIaR-Fold) was 0.7. The IIb-Fold (fold change in affinity over wild-type) (fold over wild-type) in test [7] stood at 9.6. Also, the IIaR-Fold (fold change in affinity over wild-type) (fold over wild-type) in test [8] came out at 14.2.
In the case of “Variant 26705 (A_E269N_strat2), one-armed trastuzumab antibody”, the Kd came to 83 nM in test [3] and 26 nM in test [4].
The matching figures for “Variant 26701 (A_E269Y_strat2), one-armed trastuzumab antibody”: 67 nM and 21 nM.
Consider “Variant 26717 (A_D270W_strat2), one-armed trastuzumab antibody”, for which the results for the Kd in test [3] and in test [4] were 83 nM and 27 nM, respectively.
In the case of “Variant 19523 (chain A: G236D / chain B: G236N_S239D_H268D), one-armed trastuzumab antibody, Scaffold 2”, in test [6], the IIb/IIaR Selectivity (IIb-Fold/IIaR-Fold) was 3.6. The IIb-Fold (fold change in affinity over wild-type) (fold over wild-type) in test [7] worked out at 6.9. The IIaR-Fold (fold change in affinity over wild-type) (fold over wild-type) in test [8] is 1.9.
“Variant 19520 (chain A: none / chain B: G236E_S239D_H268D), one-armed trastuzumab antibody, Scaffold 2”: the IIb/IIaR Selectivity (IIb-Fold/IIaR-Fold) in test [6] was determined as 1.5. Moreover, the IIb-Fold (fold change in affinity over wild-type) (fold over wild-type) in test [7] turned out to be 26.5. Further, the IIaR-Fold (fold change in affinity over wild-type) (fold over wild-type) in test [8] was 17.5.
The matching figures for “Variant 16490 (chain A: G236D / chain B: G236D), one-armed trastuzumab antibody, Scaffold 2”: 2.4, 2.1 and 0.9.
In the same order, the values of “Variant 19521 (chain A: G236N / chain B: G236D_S239D_H268D), one-armed trastuzumab antibody, Scaffold 2” are 6.8, 37.6 and 5.5.

Usually Kd stands for the concentration at which binding is half-saturated. Low values mean a tighter complex, high ones a looser complex.
